Source: patent US20250320312A1 (OXITOPE PHARMA B V, published 2025)
Numbering of substitutions follows the chain as printed. One block for each binder: values may come before it.

What was measured:
BSA = BSA (UniProt P02769); assay: scFv ELISA
[1] = biological target: T1, Peptide 1: Biotin-AGGGGSGGGGSGGGGSAAA-[Tyr(PC)]-acid (N-terminal biotin; C-terminal Tyr(PC), PC = p-diazophenyl phosphoryl choline; C-terminal acid); assay: scFv ELISA
T1 construct: Synthetic phosphocholine-conjugated peptide
T1 peptide: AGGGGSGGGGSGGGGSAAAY
In short: (§1)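 Bound scFv was read as OD450 after HRP–anti-V5 detection, TMB development and HCl stop. PPE with BSA was incubated 1 h at RT on BSA-blocked wells coated overnight at 4° C. with peptide, or on streptavidin wells loaded 1 h with biotinylated PC-peptides at 1 μg/mL.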

[2] = biological target: T2, Peptide 8: Biotin-AEAAAKEAAAKEAAAKEAAAKAAA-Tyr-acid (N-terminal biotin; C-terminal acid); assay: scFv ELISA
T2 construct: Control peptide without PC
T2 peptide: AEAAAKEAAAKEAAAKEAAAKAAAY
In short: as §1

[3] = biological target: T3, Peptide 5: Biotin-AEAAAKEAAAKEAAAKEAAAKAAA-[Tyr(PC)]-acid (N-terminal biotin; C-terminal Tyr(PC), PC = p-diazophenyl phosphoryl choline; C-terminal acid); assay: scFv ELISA
T3 construct: Synthetic phosphocholine-conjugated peptide
T3 peptide: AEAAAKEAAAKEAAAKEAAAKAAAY
In short: as §1

[4] = biological target: T4, Peptide 4: Biotin-AGGGGSGGGGSGGGGSAAA-Tyr-acid (N-terminal biotin; C-terminal acid); assay: scFv ELISA
T4 construct: Control peptide without PC
T4 peptide: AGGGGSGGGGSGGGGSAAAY
In short: as §1

[5] = biological target: T5, Peptide 5: Biotin-AEAAAKEAAAKEAAAKEAAAKAAA-[Tyr(PC)]-acid (N-terminal biotin; C-terminal Tyr(PC), PC = p-diazophenyl phosphoryl choline; C-terminal acid); assay: scFv ELISA
T5 peptide: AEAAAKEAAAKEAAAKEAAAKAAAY
In short: as §1

[6] = biological target: T6, Peptide 1: Biotin-AGGGGSGGGGSGGGGSAAA-[Tyr(PC)]-acid (N-terminal biotin; C-terminal Tyr(PC), PC = p-diazophenyl phosphoryl choline; C-terminal acid); assay: scFv ELISA
T6 peptide: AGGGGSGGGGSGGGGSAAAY
In short: as §1

[7] = biological target: T7, Peptide 8: Biotin-AEAAAKEAAAKEAAAKEAAAKAAA-Tyr-acid (N-terminal biotin; C-terminal acid; no PC); assay: scFv ELISA
T7 construct: control peptide without PC
T7 peptide: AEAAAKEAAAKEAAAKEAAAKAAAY
In short: as §1

[8] = biological target: T8, Peptide 4: Biotin-AGGGGSGGGGSGGGGSAAA-Tyr-acid (N-terminal biotin; C-terminal acid; no PC); assay: scFv ELISA
T8 construct: control peptide without PC
T8 peptide: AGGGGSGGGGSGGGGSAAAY
In short: as §1

Peptide 4 = biological target: T9, Peptide 4 (N-terminal biotin; C-terminal Tyr without PC conjugation; C-terminal acid); assay: scFv ELISA, OD450
T9 construct: Unconjugated control peptide
T9 peptide: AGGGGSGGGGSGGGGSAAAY
Protocol: (§2) For ELISA analysis of scFv binding, 96-well polystyrene plates were coated with Peptide 1, 4, 5, 8 or 100 μL BSA (10 μg/mL) in PBS at 4° C. overnight. Plates were washed three times with PBS-Tween and blocked with 100 μL 1% BSA-TBS for 1 hour at room temperature. 96-well streptavidin coated plates were coated with 100 μL biotinylated PC-peptides (1 μg/mL) in PBS for 1 hour at room temperature.
(§3) All plates were washed three times with PBS-Tween before 40 μL aliquots of PPE were added to assay plates along with 50 μL 10% BSA, and plates were incubated for 1 hour at room temperature. After washing, […] HRP conjugated anti-V5 in 5% BSA was added, and plates were incubated at room temperature for 30 mins. Plates were washed and 100 μL TMB substrate was added. Color was left to develop at room temperature before the reaction was stopped with 100 μL 1N HCl. The amount of scFv bound to each well was quantitated from absorbance measurement at 450 nm (OD450).

Peptide 8 = biological target: T10, Peptide 8 (N-terminal biotin; C-terminal Tyr without PC conjugation; C-terminal acid); assay: scFv ELISA, OD450
T10 construct: Unconjugated control peptide
T10 peptide: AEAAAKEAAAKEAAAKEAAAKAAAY
Protocol: as §2, §3

Sequence of BSA (P02769 25-607 limits assumed): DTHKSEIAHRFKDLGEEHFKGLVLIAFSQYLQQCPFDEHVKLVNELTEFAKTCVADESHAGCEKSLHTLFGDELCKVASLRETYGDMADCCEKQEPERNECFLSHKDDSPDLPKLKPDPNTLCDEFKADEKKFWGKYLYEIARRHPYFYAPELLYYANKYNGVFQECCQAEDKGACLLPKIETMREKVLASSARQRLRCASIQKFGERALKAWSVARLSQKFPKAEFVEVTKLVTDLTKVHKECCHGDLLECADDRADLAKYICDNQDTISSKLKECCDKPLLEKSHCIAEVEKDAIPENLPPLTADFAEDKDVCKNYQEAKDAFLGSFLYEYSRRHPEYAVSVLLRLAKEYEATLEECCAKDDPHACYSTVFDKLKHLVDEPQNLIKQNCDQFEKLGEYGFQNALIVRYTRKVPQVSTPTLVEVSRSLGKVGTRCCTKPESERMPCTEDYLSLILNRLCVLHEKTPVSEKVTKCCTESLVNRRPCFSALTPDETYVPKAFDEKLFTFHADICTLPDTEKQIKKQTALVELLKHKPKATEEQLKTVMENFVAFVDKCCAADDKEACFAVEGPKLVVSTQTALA

OD450 (BSA): 0.06 OD450 | OD450 [1]: 0.06 OD450 | OD450 [2]: 0.05 OD450 | OD450 [3]: 0.1 OD450 | OD450 [4]: 0.05 OD450
B1: PcOxP_DB02_G03 (scFv, V domains shown)
VH: EVQLLESGGGLVQPGGSLRLSCAASGFGFSDFYMEWVRQAPGKGLEWVAASRNKANDYTTEYADSVKGRFTISRDNSKNTLYLQMNSLRAEDTAVYYCARDYYGSSYWYHDVWGQGTLVTVSS
VL: DIVMTQSPDSLAVSLGERATINCTASEDLYSSKHKVHYLAWYQQKPGQPPKLLIYGTSNRYIGVPDRFSGSGSGTDFTLTISSLQAEDVAVYYCAQYYSYPLTFGGGTKVEIK
notes: scFv in periplasmic extract

OD450 (BSA): 0.09 OD450 | OD450 [5]: 0.09 OD450 | OD450 [6]: 0.06 OD450 | OD450 [7]: 0.04 OD450 | OD450 [8]: 0.09 OD450
B2: PcOxP_DB01_H09 (scFv, V domains shown)
VH: B1 VH with G28T, F32Y, D57T, H110D
VL: B1 VL with D28S, T57A, Y97F
notes: scFv in periplasmic extract

B3: PcOxP_DB02_E06 (scFv) (scFv, V domains shown)
VH: B1 VH with G28T, F32E, N53G, A55G, D57S, H110F
VL: DIQMTQSPSSLSASVGDRVTITCTASESLYSSKHKVHYLAWYQQKPGKAPKLLIYGASNRYIGVPSRFSGSGSGTDFTLTISSLQPEDFATYYCAQFYSYPLTFGGGTKVEIK
notes: scFv in periplasmic extract
binding result (Peptide 4): no binding (tested: avg neg. control OD450 + 3x SD) | binding result (Peptide 8): no binding (tested: avg neg. control OD450 + 3x SD)
